How the values were obtained:
[1] = target: human MSLN full-length protein, recombinant, on CHO-K1 or HEK293T cells (human) (UniProt Q13421); assay: competitive FACS on CHO-K1-human MSLN-2C8 cells vs Biotin-Tab142; competitor at 0.16 nM
[2] = target: human MSLN full-length protein, recombinant, on CHO-K1 or HEK293T cells (human) (UniProt Q13421); assay: FACS, HEK293T-hMSLN-B8 cells, antibody 20 nM
[3] = target: human MSLN full-length protein, recombinant, on CHO-K1 or HEK293T cells (human) (UniProt Q13421); assay: competitive FACS on CHO-K1-human MSLN-2C8 cells vs Biotin-Tab142; competitor at 4 nM
[4] = target: human MSLN full-length protein, recombinant, on CHO-K1 or HEK293T cells (human) (UniProt Q13421); assay: FACS, HEK293T-hMSLN-B8 cells
[5] = target: chimeric human MSLN-R3 / chicken MSLN-R1-2 protein on HEK293T cells (clone A5) (chicken; human); assay: FACS, HEK293T-hR3/chickR1-2-A5 cells, antibody 0.2 nM
Sequence of chimeric human MSLN-R3 / chicken MSLN-R1-2 protein on HEK293T cells (clone A5) (chicken; human) (Q13421 495-614, change not shown): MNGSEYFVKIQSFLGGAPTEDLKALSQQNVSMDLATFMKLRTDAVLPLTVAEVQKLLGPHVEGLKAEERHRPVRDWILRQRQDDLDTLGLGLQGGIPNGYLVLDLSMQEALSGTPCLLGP

[6] = target: human MSLN protein endogenously expressed on tumor cells (Hela, OVCAR3) (human) (UniProt Q13421); assay: FACS, OVCAR3 cells, antibody 0.16 nM
Sequence of human MSLN protein endogenously expressed on tumor cells (Hela, OVCAR3) (human) (Q13421 other isoform, or with tags, fused parts or gaps): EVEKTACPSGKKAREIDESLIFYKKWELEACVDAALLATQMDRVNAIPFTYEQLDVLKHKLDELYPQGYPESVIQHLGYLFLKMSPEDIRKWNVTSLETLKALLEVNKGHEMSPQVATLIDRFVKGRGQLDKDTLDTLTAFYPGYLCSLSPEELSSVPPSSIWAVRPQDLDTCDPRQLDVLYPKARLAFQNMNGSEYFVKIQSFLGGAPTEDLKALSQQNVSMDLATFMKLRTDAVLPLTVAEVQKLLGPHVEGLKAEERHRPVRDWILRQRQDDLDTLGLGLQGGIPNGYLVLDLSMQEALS

[7] = target: monkey MSLN full-length protein on HEK293T cells (monkey); assay: FACS, HEK293T-monkey-MSLN cells, antibody 4 nM
[8] = target: human MSLN-R3-rFc protein (human) (UniProt Q13421); assay: ELISA, antibody 4 nM
[9] = target: human MSLN full-length protein on transfected cells (CHO-K1-hMSLN clones 2C8, 2D11, 2C5; HEK293T-hMSLN clones B8, 2A4, 2A7) (human) (UniProt Q13421); assay: FACS, CHO-K1-hMSLN-2C8 cells, antibody 0.032 nM
Sequence of human MSLN full-length protein on transfected cells (CHO-K1-hMSLN clones 2C8, 2D11, 2C5; HEK293T-hMSLN clones B8, 2A4, 2A7) (human) (Q13421 other isoform, or with tags, fused parts or gaps limits assumed): as the sequence (Q13421 other isoform, or with tags, fused parts or gaps) above, with R14P counted along it

[10] = target: human MSLN protein endogenously expressed on tumor cells (Hela, OVCAR3) (human) (UniProt Q13421); assay: FACS, OVCAR3 cells, antibody 4 nM
[11] = target: human MSLN full-length protein, recombinant, on CHO-K1 or HEK293T cells (human) (UniProt Q13421); assay: competitive FACS on CHO-K1-human MSLN-2C8 cells vs Biotin-Tab131; competitor at 8 nM
[12] = target: human MSLN full-length protein on transfected cells (CHO-K1-hMSLN clones 2C8, 2D11, 2C5; HEK293T-hMSLN clones B8, 2A4, 2A7) (human) (UniProt Q13421); assay: FACS, CHO-K1-hMSLN-2C8 cells, antibody 0.16 nM
[13] = target: human MSLN full-length protein, recombinant, on CHO-K1 or HEK293T cells (human) (UniProt Q13421); assay: competitive FACS on CHO-K1-human MSLN-2C8 cells vs Biotin-Tab142; competitor at 40 nM
[14] = target: human MSLN full-length protein, recombinant, on CHO-K1 or HEK293T cells (human) (UniProt Q13421); assay: competitive FACS on CHO-K1-human MSLN-2C8 cells vs Biotin-Tab142; competitor at 0.0064 nM
[15] = target: human MSLN full-length protein, recombinant, on CHO-K1 or HEK293T cells (human) (UniProt Q13421); assay: competitive FACS on CHO-K1-human MSLN-2C8 cells vs Biotin-Tab142; competitor at 0.0128 nM
[16] = target: chimeric human MSLN-R3 / chicken MSLN-R1-2 protein on HEK293T cells (clone A5) (chicken; human); assay: FACS, HEK293T-chickR1-2/hR3-A5 cells
[17] = target: human MSLN full-length protein, recombinant, on CHO-K1 or HEK293T cells (human) (UniProt Q13421); assay: competitive FACS on CHO-K1-human MSLN-2C8 cells vs Biotin-Tab131; competitor at 1.6 nM
[18] = target: human MSLN full-length protein, recombinant, on CHO-K1 or HEK293T cells (human) (UniProt Q13421); assay: competitive FACS on CHO-K1-human MSLN-2C8 cells vs Biotin-Tab142; competitor at 20 nM
[19] = target: human MSLN full-length protein on transfected cells (CHO-K1-hMSLN clones 2C8, 2D11, 2C5; HEK293T-hMSLN clones B8, 2A4, 2A7) (human) (UniProt Q13421); assay: FACS, CHO-K1-hMSLN-2C8 cells, antibody 0.8 nM
[20] = target: monkey MSLN full-length protein on HEK293T cells (monkey); assay: FACS, HEK293T-monkey-MSLN cells, antibody 0.032 nM
[21] = target: monkey MSLN full-length protein on HEK293T cells (monkey); assay: FACS, HEK293T-monkey MSLN cells
[22] = target: human MSLN full-length protein, recombinant, on CHO-K1 or HEK293T cells (human) (UniProt Q13421); assay: FACS, CHO-K1-hMSLN-2C8 cells
[23] = target: human MSLN full-length protein, recombinant, on CHO-K1 or HEK293T cells (human) (UniProt Q13421); assay: competitive FACS on CHO-K1-human MSLN-2C8 cells vs Biotin-Tab142; competitor at 200 nM
[24] = target: human MSLN protein endogenously expressed on tumor cells (Hela, OVCAR3) (human) (UniProt Q13421); assay: FACS, OVCAR3 cells, antibody 0.0064 nM
[25] = target: human MSLN full-length protein, recombinant, on CHO-K1 or HEK293T cells (human) (UniProt Q13421); assay: competitive FACS on CHO-K1-human MSLN-2C8 cells vs Biotin-Tab131; competitor at 200 nM
[26] = target: human MSLN full-length protein, recombinant, on CHO-K1 or HEK293T cells (human) (UniProt Q13421); assay: competitive FACS on CHO-K1-human MSLN-2C8 cells vs Biotin-Tab142; competitor at 0.032 nM
[27] = target: human MSLN full-length protein, recombinant, on CHO-K1 or HEK293T cells (human) (UniProt Q13421); assay: competitive FACS on CHO-K1-human MSLN-2C8 cells vs Biotin-Tab131; competitor at 0.32 nM

Sequence of human MSLN full-length protein, recombinant, on CHO-K1 or HEK293T cells (human) (Q13421 other isoform, or with tags, fused parts or gaps limits assumed): as the sequence (Q13421 other isoform, or with tags, fused parts or gaps) above, with R14P counted along it

hIgG1 (antibody)
MFI of Biotin-Tab142 [1]: 43600
MFI [2]: 68
MFI of Biotin-Tab142 [3]: 43100
Max MFI [4]: 77
MFI [5]: 73
FACS signal (MFI) [6]: 74
FACS signal (MFI) [7]: 85
OD450 nm [8]: 0.15
FACS signal (MFI) [9]: 59
FACS signal (MFI) [10]: 74
MFI of Biotin-Tab131 [11]: 13000
FACS signal (MFI) [12]: 59
MFI of Biotin-Tab142 [13]: 23600
MFI of Biotin-Tab142 [14]: 43700
MFI of Biotin-Tab142 [15]: 24100
Max MFI [16]: 115
MFI of Biotin-Tab131 [17]: 12600
MFI of Biotin-Tab142 [18]: 42600
FACS signal (MFI) [19]: 80
FACS signal (MFI) [20]: 125
Max MFI [21]: 104
Max MFI [22]: 80
MFI of Biotin-Tab142 [23]: 24000
FACS signal (MFI) [24]: 74
MFI of Biotin-Tab131 [25]: 12900
MFI of Biotin-Tab142 [26]: 43700
MFI of Biotin-Tab131 [27]: 12700

Reference: US20240124563A1
